In PMC6193540 one finds fold change of the binding to p53 in PTTG-depleted cells against Scr shRNA cells data, which are given here for one molecule.

The target of test [1] is p53, endogenous in 92-VU-040T HNSCC cells (human (endogenous in 92-VU-040T)) (UniProt P04637). Briefly: co-IP.
Test [2] addresses p53, endogenous in 93-VU-147T HNSCC cells (human (endogenous in 93-VU-147T)) (UniProt P04637). In words: co-IP.

B1: PBF, HA-tagged (natural protein)
chain: QEPPGAACSQNTNKTCEECLKNVSCLWCNTNKACLDYPVTSVLPPASLCKLSSARWGVCWVNFEALIITMSVVGGTLLLGIAICCCCCCRRKRSRKPDRSEEKAMREREERRIRQEERRAEMKTRHDEIRKKYGLFKEENPYARFENN
As for B1, the fold change of the binding to p53 in PTTG-depleted cells against Scr shRNA cells in test [1] worked out at 4 fold; in test [2], 3.6 fold.
